Experimental data: publication PMC8562663

How the values were obtained:
[1] = target: membrane-bound lytic murein transglycosylase A (MltA) from Acinetobacter baumannii, N-terminally truncated (Gly23-Asn388), wild type (Acinetobacter baumannii); experiment: SEC-MALS; Ni-NTA-purified protein on Superdex 200 10/300, 20 mM Tris-HCl pH 8.0, 150 mM NaCl, 0.3 ml/min, 25°C; DAWN TREOS detector; self-association
[2] = target: abMltA triple mutant (D151K, Y162K or Y162W, E164K); experiment: SEC-MALS; settings: read off a plot

Substance | stoichiometry N [1] | other: molecular mass (MALS) [2] [Da]
membrane-bound lytic murein transglycosylase A (MltA) from Acinetobacter baumannii, N-terminally truncated (Gly23-Asn388), wild type (enzyme) | 2 | 
membrane-bound lytic murein transglycosylase A (MltA) from Acinetobacter baumannii, N-terminally truncated (Gly23-Asn388), wild type D151K; Y162W; E164K |  | 45000
